Results on 14 molecules are retold here after patent US20140044738A1 (AstraZeneca / MedImmune, published 2014).

Numbering of substitutions follows the chain as printed.

Assay [1] has as its target human PD-1, full length, expressed on the cell surface (human) (UniProt Q15116). In words: flow cytometry: human primary CD4 T cells, CD45RA low; PD-1 as the cells express it.
Assay [2] has the same target. Description: flow cytometry: human primary CD8 T cells, CD45RA low; PD-1 as the cells express it.
Assay [3] has the same target. Description: flow cytometry: human primary CD8 T cells, CD45RA high; PD-1 as the cells express it.
For assay [4] the target is unchanged. Description: flow cytometry: human primary CD4 T cells, CD45RA high; PD-1 as the cells express it.
For assay [5] the target is unchanged. Description: flow cytometry: human primary CD8 T cells, CD45RA med; PD-1 as the cells express it.
Assay [6] has the same target. Description: flow cytometry: human primary CD4 T cells, CD45RA med; PD-1 as the cells express it.
For assay [7] the target is unchanged. In words: flow cytometry: CHO cells with full-length human PD-1 pre-incubated with Ctl Ig, then hB7-DC mIg + a-mIg-APC; a-mIg-APC alone MFI=10. A general note: A flow cytometer gives signals particle by particle.
The target of assay [8] is T1, human B7-H1, full length, expressed on the cell surface (human, UniProt Q9NZQ7 19-290).
T1 construct: whole, on cells; also called CHO-hB7-H1; CHO-B7-H1 cells
T1 sequence (Q9NZQ7 19-290): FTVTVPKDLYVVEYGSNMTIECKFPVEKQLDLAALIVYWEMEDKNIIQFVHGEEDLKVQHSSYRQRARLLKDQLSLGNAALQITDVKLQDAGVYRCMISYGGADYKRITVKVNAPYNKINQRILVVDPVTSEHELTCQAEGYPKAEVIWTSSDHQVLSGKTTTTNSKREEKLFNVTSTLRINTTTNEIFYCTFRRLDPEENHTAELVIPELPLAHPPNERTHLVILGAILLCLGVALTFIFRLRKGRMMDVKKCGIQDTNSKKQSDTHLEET
In words: flow cytometry on CHO cells expressing human B7-H1, median fluorescence intensity.

Assay [9] deals with T2, human PD-1, full length, expressed on the cell surface (human, UniProt Q15116 25-288). Description: cell-based or functional assay.
T2 sequence (Q15116 25-288): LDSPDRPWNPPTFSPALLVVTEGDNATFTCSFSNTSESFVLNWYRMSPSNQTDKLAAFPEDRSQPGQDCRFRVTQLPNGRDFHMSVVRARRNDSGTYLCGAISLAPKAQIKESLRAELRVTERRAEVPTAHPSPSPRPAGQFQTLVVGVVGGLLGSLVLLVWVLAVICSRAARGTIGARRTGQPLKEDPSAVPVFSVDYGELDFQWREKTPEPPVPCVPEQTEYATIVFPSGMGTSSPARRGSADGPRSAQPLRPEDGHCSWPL
The target of assay [10] is T3, human PD-1 (form in the assay not stated) (human, UniProt Q15116 25-167, limits assumed).
T3 construct: Used for the kinetic constants and EC50 values whose assay format is not described
T3 sequence (Q15116 25-167 limits assumed): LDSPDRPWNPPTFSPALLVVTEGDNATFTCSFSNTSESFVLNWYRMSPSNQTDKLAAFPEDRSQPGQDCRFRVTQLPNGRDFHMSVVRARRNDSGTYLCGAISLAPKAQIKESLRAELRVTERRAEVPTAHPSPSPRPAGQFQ
Description: method not stated.

For assay [11], the target named is T4, human PD-1-Fc (human, UniProt Q15116 25-167, limits assumed, biotinylated in the B7-DC blocking ELISA).
T4 construct: also called hPD-1-Fc; biotinylated PD-1-Fc
T4 sequence (Q15116 25-167 limits assumed): as above
Description: blocking, flow cytometry, by paragraph 273: the construct binds hPD-1-Fc and blocks its binding to hB7-H1 expressed by CHO cells (the legend paragraph 64 calls it a binding curve on CHO.hPD-1 cells; the curve falls). The arrangement: unit not given here.

Assay [12] deals with T3, human PD-1 (form in the assay not …). Description: PD-1-specific binding at 0 to approximately 350 nM antibody (FIG. 20); format not stated.
In assay [13] the target is T4, human PD-1-Fc. In words: ELISA: hybridoma supernatant on immobilised rhPD-1/Fc, anti-mouse IgG. Here is the method:
Splenocytes from anti-PD-1 positive animals were fused with myeloma cells following standard protocol. The resulting murine hybridomas were screened for those that express high affinity human PD-1-immunoreactive monoclonal antibodies. Antibodies were additionally evaluated to determine whether they were IgG or IgM antibodies. […] Hybridoma supernatants were then placed in contact with the support, and the presence of anti-PD-1 antibody was determined using labeled anti-mouse IgG or anti-mouse IgM.
A general note: In an ELISA, binding on a coated surface is turned into a signal by an enzyme label.

For assay [14], the target named is T2, human PD-1, full length, expressed on …. Description: cell-based competition: CHO-hPD1 cells, antibody 30 min, then 10 µg/ml APC-labeled B7-DC-Fc; axis 100 to 0 without a unit (text: 0-0.1 mg/ml). How it is done:
A cell-based competition assay was performed by incubating 50,000 CHO-hPD1 cells for 30 minutes with anti-PD-1 antibody (present at concentrations ranging from 0-0.1 mg/ml). […] The competition was repeated at a fixed antibody concentration of 20 μg/mL (FIG. 11).

human PD-1, full length, expressed on the cell surface (human), sequence (Q15116 25-288): as the sequence (Q15116 25-288) above

For the molecule SYNAGIS (antibody), the number over the gate of positive cells in assay [1] was 2.1; in [2], 1.6; in assay [3], 1.5; in [4], 1.4; in [5], 1.6; in [6] it was 1.1.

B1: B7-DC-Fc (Fc fusion, part only; not given: Fc part, human, UniProt Q9BQ51 20-220, looked up, part only)
chain, part: LFTVTVPKELYIIEHGSNVTLECNFDTGSHVNLGAITASLQKVENDTSPHRERATLLEEQLPLGKASFHIPQVQVRDEGQYQCIIIYGVAWDYKYLTLKVKASYRKINTHILKVPETDEVELTCQATGYPLAEVSWPNVSVPANTSHSRTPEGLYQVTSVLRLKPPPGRNFSCVFWNTHVRELTLASIDLQSQMEPRTHPT
modifications: APC-labeled or biotinylated in the cell-based assays
Turning to B1, in [7], the MFI came out at 2930.

B2: Anti-Human B7-H1 Clone 1E12 (antibody, V domains shown)
VH: EVKLQESGPSLVKPSQTLSLTCSVTGYSITSDYWNWIRKFPGNKLEYVGYISYTGSTYYNPSLKSRISITRDTSKNQYYLQLNSVTSEDTATYYCARYGGWLSPFDYWGQGTTLTVSS
VL: DIVMTQSHKLMSTSVGDRVSITCKASQDVGTAVAWYQQKPGQSPKLLIYWASTRHTGVPDRFTGSGSGTDFTLTISNVQSEDLADYFCQQDSSYPLTFGAGTKVELK
notes: Murine hybridoma IgG
Regarding B2, the MFI in [8] came out at 56200.

B3: Anti-Human B7-H1 Clone 1F4 (antibody, V domains shown)
VH: EVQLQESGPGLVAPSQSLSITCTVSGFSLTTYSINWIRQPPGKGLEWLGVMWAGGGTNSNSVLKSRLIISKDNSKSQVFLKMNSLQTDDTARYYCARYYGNSPYYAIDYWGQGTSVTVSS
VL: B2 VL with M4T
notes: Murine hybridoma IgG
In turn, B3 returned an MFI in assay [8] of 62000.

B4: Anti-Human B7-H1 Clone 3B6 (antibody, V domains shown)
VL: DIVMTQSPAIMSASPGEKVTMTCSASSSIRYMHWYQQKPGTSPKRWISDTSKLTSGVPARFSGSGSGTSYALTISSMEAEDAATYYCHQRSSYPWTFGGGTKLEIK
V domain: EVKLQESGPSLVKPGASVKLSCKASGYTFTSYDINWVKQRPGQGLEWIGWIFPRDNNTKYNENFKGKATLTVDTSSTTAYMELHSLTSEDSAVYFCTKENWVGDFDYWGQGTTLTLSS
notes: Murine hybridoma IgG
Molecule B4 gave an MFI in assay [8] of 59600.

B5: Anti-Human B7-H1 Clone 3D10 (antibody, V domains shown)
VH: EVQLQQSGPDLVTPGASVRISCQASGYTFPDYYMNWVKQSHGKSLEWIGDIDPNYGGTTYNQKFKGKAILTVDRSSSTAYMELRSLTSEDSAVYYCARGALTDWGQGTSLTVSS
VL: QIVLSQSPAILSASPGEKVTMTCRASSSVSYIYWFQQKPGSSPKPWIYATFNLASGVPARFSGSGSGTSYSLTISRVETEDAATYYCQQWSNNPLTFGAGTKLELK
notes: Murine hybridoma IgG
Molecule B5 registered an MFI in assay [8] of 53100.

B6: 1H3 Construct (chimeric murine anti-human PD-1 Fab regions of antibody 1H3 and a human IgG1 Fc region) (antibody, V domains shown)
VH: EVQLVESGGGLVKPGGSLKLSCAASGFTFSDYGMHWVRQAPEKGLEWVAYISSGSYTIYYTDTVKGRFTISRDNAKNTLFLQMTSLRSEDTAMYYCARRGYGSFYEYYFDYWGQGTTLTVSS
VL: QIVLTQSPALMSASPGEKVTMTCSASSSVSYMYWYQQKPRSSPKPWIYLTSNLASGVPARFSGSGSGTSYSLTISSMEAEDAATYYCQQWSSNPFTFGSGTKLEIK
notes: also called 1H3 anti-human PD-1 chimeric antibody; chimeric 1H3
As to B6, the T cell proliferation in assay [9] is roughly 7 fold. Also, in assay [10], the Kd is 2.19 nM, the koff is 0.000161 s⁻¹ and the kon came out at 73400 M⁻¹ s⁻¹. Besides, the “IC50 (read off the curve)” value with human PD-1-Fc [11] was roughly 100. This molecule also registered an EC50 in assay [12] of 3 nM.

B7: h1H3 Var 2 (antibody, V domains shown)
VH: B6 VH with K13Q, K19R, E42G, T61A, T63S, F80Y, T84S, S88A, M93V, L118V
VL: EIVLTQSPATLSLSPGERATLSCRASSSVSYMYWYQQKPGQAPRLLIYLASNRATGIPARFSGSGSGTDYTLTISSLEPEDFAVYYCQQWSSNPFTFGQGTKLEIK
notes: Humanized variable domains LC1_1 / HC1_2
In turn, B7 showed an EC50 in assay [12] of 3 nM.

B8: h1H3 Var 4 (antibody, V domains shown)
VH: EVQLVESGGGLVQPGGSLRLSCAASGFTFSDYGMHWVRQAPGKGLEWVSYISSGSSTIYYADSVKGRFTISRDNAKNTLYLQMSSLRAEDTAVYYCARRGYGSFYEYYFDYWGQGTTVTVSS
VL: B7 VL with E1Q, R24S, A50T
notes: Humanized variable domains LC1_2 / HC1_1
B8 gave an EC50 in [12] of 6 nM.

B9: h1H3 Var 6 (antibody, V domains shown)
VH: B8 VH with S49A, S56Y, Y60S
VL: B7 VL with E1Q, R24S, A50T
notes: Humanized variable domains LC1_2 / HC1_3
In turn, B9 showed a 50% effective concentration (EC50) in assay [12] of 3 nM.

B10: h1H3 Var 5 (antibody, V domains shown)
VH: B8 VH with S49A, S56Y
VL: B7 VL with E1Q, R24S, A50T
notes: Humanized variable domains LC1_2 / HC1_2
As to B10, a half-maximal effect in assay [12] (EC50) was put at 3 nM.

B11: h1H3 Var 1 (antibody, V domains shown)
VH: B8 VH
VL: B7 VL
notes: Humanized variable domains LC1_1 / HC1_1
In the case of B11, in [12], the response was half-maximal at 6 nM (EC50).

B12: h1H3 Var 3 (antibody, V domains shown)
VH: B8 VH with S49A, S56Y, Y60S
VL: B7 VL
notes: Humanized variable domains LC1_1 / HC1_3
B12: a half-maximal effect in assay [12] (EC50) was put at 3 nM.

B13: Anti-Human PD-1 Clone 1E3 (antibody, IgG1, V domains shown)
VH: EVQLQQSGPVLVKPGASVKMSCKASGYTFTDYYMNWVKQSHGKSLEWIGNINPYNGGTTYNQKFKGKATLTVDKSSRTAYMEINSLTSEDSAVYYCARGRIYDGSLDYWGQGTALTVSS
VL: DIQMTQFPSSLCASQGGKVTVTCKASQDINNYMAWYQHKPGKGPRLLIHYTSTLLSGIPSRFSGSGSGRDYSFSISNLEPEDIATYYCLQYDNLWTFGGGTKLEIK
notes: Murine hybridoma antibody, IgG1/kappa
With B13, the binding result (with human PD-1-Fc [13]; in [14]) was “binds” in each case.

A word on the Kd: it is the free concentration of one partner at which half of the binding sites on the other are occupied at equilibrium, for simple one-to-one binding. For orientation: koff means the rate constant with which the complex falls apart. As usually defined, the kon is the second-order rate constant of association. Broadly, the EC50 is the concentration that produces a half-maximal response.
